In PMC3220268 one finds Kd and fold decrease in affinity against WT data, which are given here for two substances.

In one assay the target is actin filaments (UniProt P68135). Description: co-sedimentation; actin co-sedimentation (pelleting) of rArp2/3 complex with actin filaments, as described in ref. 46.
The target of assay [1] is gelsolin-capped actin filaments (UniProt P68135). Kind of assay: pointed end capping assay (elongation from gelsolin-capped actin filaments); gelsolin-capped actin filaments (100 nM), 4 µM actin with pyrene-labeled actin; slowing of pointed end elongation by rArp2/3 complex.

One may read the Kd as a measure of binding affinity in units of concentration.

In the assay with actin filaments, “recombinant Arp2/3 complex with ARPC4 R105A and R106A mutations (from UniProt P61158 1-418; P61160 1-394; O15143 1-372; O15144 1-300; O15145 1-178; P59998 1-168; O15511 1-151)” registered a Kd of 1500 nM.

The substance “recombinant Arp2/3 complex with Arp2 T237A, T238A, and Y202A mutations (from UniProt P61158 1-418; P61160 1-394; O15143 1-372; O15144 1-300; O15145 1-178; P59998 1-168; O15511 1-151)” had a fold decrease in affinity against WT in assay [1] of 8 fold.
